Key:
SEC [1] = biological target: the molecule itself; assay: SEC
SEC [2] = biological target: the molecule itself; assay: SEC; remark: listed apart in the source
AUC = biological target: the molecule itself; assay: AUC

B1: SATB1 ubiquitin-like domain (ULD), residues 71-172 (domain or fragment, mouse, UniProt Q60611 71-172, looked up)
chain: GTMLPVFCVVEHYENAIEYDCKEEHAEFVLVRKDMLFNQLIEMALLSLGYSHSSAAQAKGLIQVGKWNPVPLSYVTDAPDATVADMLQDVYHVVTLKIQLHS
- stoichiometry N (SEC [1]): 4

B2: SATB1 EFH-AAA mutant, full length (natural protein, mouse, UniProt Q60611 1-764, looked up)
chain: MDHLNEATQGKEHSEMSNNVSDPKGPPAKIARLEQNGSPLGRGRLGSTGGKMQGVPLKHSGHLMKTNLRKGTMLPVFCVVEHYENAIEYDCKEEHAAAVLVRKDMLFNQLIEMALLSLGYSHSSAAQAKGLIQVGKWNPVPLSYVTDAPDATVADMLQDVYAVVTLKIQLHSCPKLEDLPPEQWSHTTVRNALKDLLKDMNQSSLAKECPLSQSMISSIVNSTYYANVSAAKCQEFGRWYKHFKKTKDMMVEMDSLSELSQQGANHVNFGQQPVPGNTAEQPPSPAQLSHGSQPSVRTPLPNLHPGLVSTPISPQLVNQQLVMAQLLNQQYAVNRLLAQQSLNQQYLNHPPPVSRSMNKPLEQQVSTNTEVSSEIYQWVRDELKRAGISQAVFARVAFNRTQGLLSEILRKEEDPKTASQSLLVNLRAMQNFLQLPEAERDRIYQDERERSLNAASAMGPAPLLSTPPSRPPQVKTATLATERNGKPENNTMNINASIYDEIQQEMKRAKVSQALFAKVAATKSQGWLCELLRWKEDPSPENRTLWENLSMIRRFLSLPQPERDAIYEQESNAVHHHGDRPPHIIHVPAEQIQQQQQQQQQQQQQQQPPPPPPQPQPQPQAGPRLPPRQPTVASSAESDEENRQKTRPRTKISVEALGILQSFIQDVGLYPDEEAIQTLSAQLDLPKYTIIKFFQNQRYYLKHHGKLKDNSGLEVDVAEYKDEELLKDLEESVQDKNANTLFSVKLEEELSVEGSTDVNADLKD
- binding result (SEC [2]): binds

B3: SATB1 KWN-AAA mutant, full length (natural protein, mouse, UniProt Q60611 1-764, looked up)
chain: MDHLNEATQGKEHSEMSNNVSDPKGPPAKIARLEQNGSPLGRGRLGSTGGKMQGVPLKHSGHLMKTNLRKGTMLPVFCVVEHYENAIEYDCKEEHAEFVLVRKDMLFNQLIEMALLSLGYSHSSAAQAKGLIQVGAAAPVPLSYVTDAPDATVADMLQDVYHVVTLKIQLHSCPKLEDLPPEQWSHTTVRNALKDLLKDMNQSSLAKECPLSQSMISSIVNSTYYANVSAAKCQEFGRWYKHFKKTKDMMVEMDSLSELSQQGANHVNFGQQPVPGNTAEQPPSPAQLSHGSQPSVRTPLPNLHPGLVSTPISPQLVNQQLVMAQLLNQQYAVNRLLAQQSLNQQYLNHPPPVSRSMNKPLEQQVSTNTEVSSEIYQWVRDELKRAGISQAVFARVAFNRTQGLLSEILRKEEDPKTASQSLLVNLRAMQNFLQLPEAERDRIYQDERERSLNAASAMGPAPLLSTPPSRPPQVKTATLATERNGKPENNTMNINASIYDEIQQEMKRAKVSQALFAKVAATKSQGWLCELLRWKEDPSPENRTLWENLSMIRRFLSLPQPERDAIYEQESNAVHHHGDRPPHIIHVPAEQIQQQQQQQQQQQQQQQPPPPPPQPQPQPQAGPRLPPRQPTVASSAESDEENRQKTRPRTKISVEALGILQSFIQDVGLYPDEEAIQTLSAQLDLPKYTIIKFFQNQRYYLKHHGKLKDNSGLEVDVAEYKDEELLKDLEESVQDKNANTLFSVKLEEELSVEGSTDVNADLKD
- stoichiometry N (AUC): 2

Source: article PMC3351170 (Nucleic Acids Research, 2012)
